The record followed here is paper PMC4915977 (Current biology : CB, 2016).

In experiment [1] the target is Mst1 SARAH domain with a C-terminal Cys, AEDANS-labelled (UniProt Q13043). Kind of experiment: FRET or BRET. A general note: Bioluminescence resonance energy transfer reports proximity on the nanometre scale.
Experiment [2] deals with Mst2 SARAH domain with a C-terminal Cys, AEDANS-labelled (UniProt Q13188). Kind of experiment: FRET or BRET.
The target of experiment [3] is T1, HA-tagged Mst2, full-length (UniProt Q13188 1-491).
T1 sequence (looked up): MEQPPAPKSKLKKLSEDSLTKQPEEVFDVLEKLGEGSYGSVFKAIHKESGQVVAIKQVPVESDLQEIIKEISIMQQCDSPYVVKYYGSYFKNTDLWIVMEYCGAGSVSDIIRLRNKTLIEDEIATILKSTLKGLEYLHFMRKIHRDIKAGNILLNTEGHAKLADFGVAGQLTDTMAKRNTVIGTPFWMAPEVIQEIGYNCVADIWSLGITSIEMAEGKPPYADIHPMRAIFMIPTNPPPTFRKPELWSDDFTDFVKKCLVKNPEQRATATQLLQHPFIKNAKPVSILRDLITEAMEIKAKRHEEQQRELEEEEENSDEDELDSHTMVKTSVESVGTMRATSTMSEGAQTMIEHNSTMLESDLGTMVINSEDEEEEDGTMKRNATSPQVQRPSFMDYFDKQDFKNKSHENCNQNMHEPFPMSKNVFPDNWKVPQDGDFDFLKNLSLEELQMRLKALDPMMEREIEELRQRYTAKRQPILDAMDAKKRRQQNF
Briefly: co-IP.

As for “Mst1 SARAH domain with a C-terminal Cys, AEDANS-labelled (from UniProt Q13043 433-480) (domain or fragment)”, the Kd (commonly the equilibrium constant for the complex coming apart) in experiment [1] was found to be 6.5 µM.
Regarding “Mst1 SARAH domain, unlabeled (from UniProt Q13043 433-480) (domain or fragment)”, the Kd in experiment [2] is 0.72 µM.
In experiment [2], “Mst2-LW SARAH domain, unlabeled (from UniProt Q13188 437-484) (domain or fragment)” returned a Kd of 4.3 µM.

B1: Myc-tagged Mst1, full-length (1-487) (natural protein, UniProt Q13043 1-487, looked up)
chain: METVQLRNPPRRQLKKLDEDSLTKQPEEVFDVLEKLGEGSYGSVYKAIHKETGQIVAIKQVPVESDLQEIIKEISIMQQCDSPHVVKYYGSYFKNTDLWIVMEYCGAGSVSDIIRLRNKTLTEDEIATILQSTLKGLEYLHFMRKIHRDIKAGNILLNTEGHAKLADFGVAGQLTDTMAKRNTVIGTPFWMAPEVIQEIGYNCVADIWSLGITAIEMAEGKPPYADIHPMRAIFMIPTNPPPTFRKPELWSDNFTDFVKQCLVKSPEQRATATQLLQHPFVRSAKGVSILRDLINEAMDVKLKRQESQQREVDQDDEENSEEDEMDSGTMVRAVGDEMGTVRVASTMTDGANTMIEHDDTLPSQLGTMVINAEDEEEEGTMKRRDETMQPAKPSFLEYFEQKEKENQINSFGKSVPGPLKNSSDWKIPQDGDYEFLKSWTVEDLQKRLLALDPMMEQEIEEIRQKYQSKRQPILDAIEAKKRRQQNF
As for B1, the “level of heterodimers relative to homodimers” value in experiment [3] is approximately 60%.
